From publication PMC7665200, “Mus81-Mms4 endonuclease is an Esc2-STUbL-Cullin8 mitotic substrate impacting on genome integrity” (Nature Communications, 2020)
One block for each binder: values may come before it.

Biological target: T1, GST-Esc2 (Saccharomyces cerevisiae, UniProt Q06340 1-456)
T1 construct: Esc2, Saccharomyces cerevisiae, full-length gene cloned into BamHI/SalI of pGEX-6P-2; pGEX-6P-2 should place GST at the N-terminus (surmised from the vector); also called recombinant glutathione S-transferase (GST)-Esc2; GST-tagged Esc2; source: E. coli BL21 (DE3), purified (glutathione-Sepharose 4B, eluted with reduced glutathione, dialysed)
T1 sequence (looked up): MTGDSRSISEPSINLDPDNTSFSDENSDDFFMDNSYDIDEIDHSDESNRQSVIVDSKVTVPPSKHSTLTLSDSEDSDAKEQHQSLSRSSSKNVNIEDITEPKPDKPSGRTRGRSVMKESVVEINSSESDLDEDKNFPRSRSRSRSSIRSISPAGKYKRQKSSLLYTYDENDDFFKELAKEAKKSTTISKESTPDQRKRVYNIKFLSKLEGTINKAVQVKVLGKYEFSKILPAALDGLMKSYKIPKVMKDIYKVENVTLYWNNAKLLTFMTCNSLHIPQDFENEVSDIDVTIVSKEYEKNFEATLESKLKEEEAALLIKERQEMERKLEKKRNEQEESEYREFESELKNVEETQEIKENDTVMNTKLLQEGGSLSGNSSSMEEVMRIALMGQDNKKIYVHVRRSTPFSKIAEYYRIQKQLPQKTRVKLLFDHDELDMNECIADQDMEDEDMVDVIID
Assay: peptide or protein array; PEPperPRINT microarray of 15-aa peptides covering the entire Mms4 and Mus81 with 14-aa overlaps, printed in duplicate; purified GST-Esc2 in solution, detected with anti-GST DyLight680
Settings: both partners purified

binding result: binds
B1: Mus81 peptide EKGTKKRKTRKYIPK (peptide)
peptide: EKGTKKRKTRKYIPK
notes: 15-aa stretch of Mus81, S. cerevisiae; Immobilised on the array; It is printed as the 'consensus motif' of a response peak of overlapping 15-mers; source: synthetic peptide, printed on a peptide microarray (PEPperPRINT GmbH)

binding result: binds
B2: Mms4 peptide RSKKSSQVGKLGIKK (peptide)
peptide: RSKKSSQVGKLGIKK
notes: 15-aa stretch of Mms4, S. cerevisiae; Immobilised on the array; It is printed as the 'consensus motif' of a response peak of overlapping 15-mers; source: synthetic peptide, printed on a peptide microarray (PEPperPRINT GmbH)
